According to patent US20240158515A1 (Regeneron, published 2024):
Positions count from the first letter of the chain named.

B1: H4H30089P2 (antibody, human IgG4 S228P, kappa, V domains shown)
VH: EVQLVESGGGLVQPGGSLRLSCIVSGFIFSSYEMSWLRQAPGKGLEWISYISSSGRVIYYADSVKGRFTISRDSAKNSLYLEMNSLRAEDTAIYYCTRKWDSSGPFDFWGQGTLVTVSS
VL: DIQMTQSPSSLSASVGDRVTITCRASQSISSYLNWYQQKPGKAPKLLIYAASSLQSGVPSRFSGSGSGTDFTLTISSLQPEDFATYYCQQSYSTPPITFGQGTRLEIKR
notes: HCVR 62, LCVR 70
B2: H4H30093P2 (antibody, human IgG4 S228P, kappa, V domains shown)
VH: QVQLVESGGGLVKPGGSLRLSCAASGFTFNDYPMSWIRQAPGKGLEWVSYITSSSGSTIYYADSVKGRFTISRDNAKNSLYLQMNSLRAEDTAVYYCAREVVVATIGGYYGMDVWGQGTTVTVSS
VL: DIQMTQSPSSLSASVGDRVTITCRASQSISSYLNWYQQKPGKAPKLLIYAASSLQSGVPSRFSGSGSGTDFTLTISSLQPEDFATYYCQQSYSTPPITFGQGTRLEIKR
notes: HCVR 82, LCVR 90
B3: H4H30095P2 (antibody, human IgG4 S228P, kappa, V domains shown)
VH: QVQLVQSGVEVKKPGASVKVSCKASGYTFKFYGISWVRQAPGQGLEWMGWISVYNGKTKYAQKLQGRVTMTTDTSTSTAYMELRSLRSDDTAVYFCARDGDYESSGYPFDYWGQGTLVTVSS
VL: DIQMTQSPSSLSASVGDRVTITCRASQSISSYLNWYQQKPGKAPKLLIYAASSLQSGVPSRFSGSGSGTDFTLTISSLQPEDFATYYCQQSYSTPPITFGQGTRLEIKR
B4: H4H30105P2 (antibody, human IgG4 S228P, kappa, V domains shown)
VH: EVQLVQSGAEVKKPGESLKISCKGSGYSFTSYWIAWVRQMPGKGLEWMGIIYPGDSDTRYSPSFQGQVTMSADKSIRIAYLQWSSLKASDTAMYYCARLDYSGSWFDYWGQGTLVTVSS
VL: not shown
B5: H4H30108P2 (antibody, human IgG4 S228P, kappa, V domains shown)
VH: QVQLVQSGAEVKKPGASVKVSCKASGYTFNSYDVNWVRQATGQGLEWMGWMNPHSGNTGYAQKFQGRVTMTRDTSTSTSYMELSSLTSEDTAVYYCARGPFSLLSAEFFQHWGQGTLVTVSS
VL: not shown
B6: H4H30076P (antibody, human IgG4 S228P, kappa, V domains shown)
VH: EVQLVESGGGLVQPGGSLRLSCAASGFTVSSNYMSWVRQAPGKGLEWVSIIYSGGHTYYSDSVKGRFTISRHNSKNTLYLQMNSLRGGDTAVYYCARGYTSGWYGFDFWGQGTLVTVSS
VL: DIQMTQSPSSVSASVGDRVTITCRASQGISTWLAWYQQKPGKAPKLLIYAASSLQSGVPSRFSGTGSGTDFTLTISSLQPEDFATYYCQQTNSFPWTFGQGTKVEIKR

Molecular target: T1, human FGFR3b expressed with a C-terminal myc-myc-hexahistidine tag (hFGFR3b.mmH) (human)
T1 construct: also called REGN3152; monomeric human FGFR3b
T1 chain: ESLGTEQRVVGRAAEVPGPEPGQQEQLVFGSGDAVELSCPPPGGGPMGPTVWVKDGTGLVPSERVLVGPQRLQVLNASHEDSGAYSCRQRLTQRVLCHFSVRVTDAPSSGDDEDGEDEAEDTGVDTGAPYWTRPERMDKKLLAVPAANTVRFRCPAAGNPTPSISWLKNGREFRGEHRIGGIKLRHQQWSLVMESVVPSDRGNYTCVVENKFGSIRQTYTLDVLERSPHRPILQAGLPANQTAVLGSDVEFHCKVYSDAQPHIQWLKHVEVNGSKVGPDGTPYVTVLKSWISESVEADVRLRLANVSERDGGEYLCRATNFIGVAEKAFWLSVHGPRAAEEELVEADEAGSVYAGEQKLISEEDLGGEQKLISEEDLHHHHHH
Experiment: SPR Biacore, mAb captured on anti-hFc, 25C
Protocol: (§1) The CM5 Biacore sensor surface was derivatized by amine coupling with a monoclonal mouse anti-human Fc monoclonal antibody (REGN2567). […] Antibody-reagent association was monitored for 5 minutes while dissociation in HBS-EP running buffer was monitored for 10 minutes. At the end of each cycle, the anti-FGFR3 antibody capture surface was regenerated using a 10 sec injection of 20 mM phosphoric acid. All binding kinetics experiments were performed at 25° C.
(§2) The specific SPR-Biacore sensorgrams were obtained by a double referencing procedure. The double referencing was performed by first subtracting the signal of each injection over a reference surface (anti-hFc) from the signal over the experimental surface (anti-hFc-captured anti-FGFR3 antibodies) thereby removing contributions from refractive index changes. In addition, running buffer injections were performed to allow subtraction of the signal changes resulting from the dissociation of captured antibodies from the coupled anti-hFc surface. Kinetic association (kₐ) and dissociation (kd) rate constants were determined by fitting the real-time sensorgrams to a 1:1 binding model using Scrubber v2.0c curve fitting software.

Binder | 90 nM hFGFR3b.mmH Bind (RU) | Kd [nM] | koff [s⁻¹] | kon [M⁻¹ s⁻¹] | t½ [min]
B1 | 152 | 10.2 | 0.00282 | 276000 | 4.1
B2 | 217 | 5.14 | 0.00209 | 406000 | 5.5
B3 | 239 | 7.16 | 0.005 | 698000 | 2.3
B4 | 158 | – | 0.00511 | 438000 | 2.3
B5 | 227 | – | 0.000159 | 176000 | 72.6
B6 | 198 | 0.186 | 4.39e-05 | 236000 | 263

Molecular target: T2, cynomolgus FGFR3b expressed with a C-terminal myc-myc-hexahistidine tag (mfFGFR3b.mmH) (cynomolgus)
T2 construct: also called REGN3521; mf FGFR3b ecto (R357G)(E23-G377;R357G).mmH
T2 chain: T1 chain with A13V, P17S, G22S, T57A, R94L, R171K
Experiment: SPR Biacore, mAb captured on anti-hFc, 25C
Protocol: as §1, §2

Binder | 90 nM mfFGFR3b.mmH Bind (RU) | Kd [nM] | koff [s⁻¹] | kon [M⁻¹ s⁻¹] | t½ [min] | binding result
B1 | 147 | 10.3 | 0.00221 | 216000 | 5.2 | –
B2 | – | – | – | – | – | no binding (tested: 90 nM)
B3 | 206 | 8.29 | 0.00437 | 527000 | 2.6 | –
B4 | 67.8 | 14.7 | 0.00802 | 547000 | 1.4 | –
B5 | 212 | 0.909 | 0.000136 | 149000 | 85.2 | –
B6 | 180 | 0.165 | 3.3e-05 | 200000 | 350 | –

Molecular target: T3, murine FGFR3b expressed with a C-terminal myc-myc-hexahistidine tag (mFGFR3b.mmH) (murine)
T3 construct: also called REGN3215; monomeric murine FGFR3b
T3 chain: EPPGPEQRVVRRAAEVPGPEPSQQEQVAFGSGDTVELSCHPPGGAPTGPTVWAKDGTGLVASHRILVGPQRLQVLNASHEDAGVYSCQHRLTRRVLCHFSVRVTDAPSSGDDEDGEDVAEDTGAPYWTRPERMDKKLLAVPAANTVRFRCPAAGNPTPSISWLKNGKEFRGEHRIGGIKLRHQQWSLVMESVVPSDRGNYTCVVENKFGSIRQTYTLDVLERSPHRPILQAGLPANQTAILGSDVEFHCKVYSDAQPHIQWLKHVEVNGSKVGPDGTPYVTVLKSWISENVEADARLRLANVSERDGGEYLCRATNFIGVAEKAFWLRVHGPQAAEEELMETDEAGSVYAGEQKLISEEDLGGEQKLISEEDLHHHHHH
Experiment: SPR Biacore, mAb captured on anti-hFc, 25C
Protocol: as §1, §2

Binder | 90 nM mFGFR3b.mmH Bind (RU) | Kd [nM] | koff [s⁻¹] | kon [M⁻¹ s⁻¹] | t½ [min]
B1 | 60 | 8.45 | 0.00238 | 281000 | 4.9
B2 | 11.2 | 70.9 | 0.00967 | 136000 | 1.2
B4 | 8.3 | – | 0.00122 | 149000 | 9.5
B5 | 121 | – | 0.00199 | 162000 | 5.8
B6 | 201 | 0.141 | 3.61e-05 | 256000 | 320

molecular target: T4, human FGFR3c expressed with a C-terminal myc-myc-hexahistidine tag (hFGFR3c.mmH) (human, UniProt P22607 23-375); experiment: SPR Biacore, mAb captured on anti-hFc, 25C
T4 construct: also called REGN3155; monomeric human FGFR3c
Protocol: as §1, §2

Binder | 90 nM hFGFR3c.mmH Bind (RU) | Kd [nM] | koff [s⁻¹] | kon [M⁻¹ s⁻¹] | t½ [min]
B2 | 182 | 9.2 | 0.00334 | 363000 | 3.5
B3 | 222 | 7.88 | 0.00454 | 575000 | 2.5
B4 | 131 | – | 0.00652 | 387000 | 1.8

Molecular target: T5, human FGFR3b expressed with a C-terminal murine Fc tag (hFGFR3b.mFc) (human)
T5 construct: called dimeric; also called REGN3153; dimeric human FGFR3b
T5 chain: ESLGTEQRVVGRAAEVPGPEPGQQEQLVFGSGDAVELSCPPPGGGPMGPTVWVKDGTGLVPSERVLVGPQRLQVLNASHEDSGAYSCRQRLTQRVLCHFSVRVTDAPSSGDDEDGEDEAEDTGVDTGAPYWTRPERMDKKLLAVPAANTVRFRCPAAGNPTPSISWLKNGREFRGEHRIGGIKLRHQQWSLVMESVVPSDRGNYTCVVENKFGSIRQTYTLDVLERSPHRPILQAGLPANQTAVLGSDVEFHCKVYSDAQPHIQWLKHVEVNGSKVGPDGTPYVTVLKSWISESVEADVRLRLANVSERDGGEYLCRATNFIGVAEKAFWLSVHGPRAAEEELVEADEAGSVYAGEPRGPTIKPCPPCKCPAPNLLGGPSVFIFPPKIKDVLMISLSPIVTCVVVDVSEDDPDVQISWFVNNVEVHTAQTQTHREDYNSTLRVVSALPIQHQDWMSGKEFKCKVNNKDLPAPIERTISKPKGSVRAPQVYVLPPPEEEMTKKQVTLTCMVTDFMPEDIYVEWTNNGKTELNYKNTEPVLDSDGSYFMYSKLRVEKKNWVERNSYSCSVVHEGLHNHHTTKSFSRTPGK
Experiment: SPR Biacore, mAb captured on anti-hFc, 25C
Protocol: as §1, §2

Binder | 30 nM hFGFR3b.mFc Bind (RU) | Kd [nM] | koff [s⁻¹] | kon [M⁻¹ s⁻¹] | t½ [min]
B1 | 214 | 0.061 | 1.9e-05 | 312000 | 608
B2 | 317 | 0.0265 | 1.55e-05 | 585000 | 745
B3 | 405 | 0.114 | 9.88e-05 | 867000 | 117
B5 | 213 | – | ≤ 1e-05 | 311000 | ≥ 1160
B6 | 204 | ≤ 0.0246 | ≤ 1e-05 | 407000 | ≥ 1160

molecular target: T4, human FGFR3c expressed with a …; experiment: SPR Biacore, mAb captured on anti-hFc, 25C; row marked NB
Protocol: as §1, §2

Binder | 90 nM hFGFR3c.mmH Bind (RU)
B1 | -6.7
B5 | -2.5
B6 | -9.7

Molecular target: T5, human FGFR3b expressed with a …
Experiment: competition ELISA: 4 nM hFGFR3b-mFc binding to plate-coated hFGF acidic
Protocol: The fixed concentration of hFGFR3b or hFGFR3c proteins was selected to be near the concentration that generated 50% of the maximal binding (EC₅₀ value) to plate-adhered hFGF acidic or hFGF basic protein. […] The plates were then developed using TMB substrate solution (BD Biosciences) according to the manufacturer's recommended procedure and absorbance at 450 nm was measured on a Victor X5 plate reader.
Binding data were analyzed using a sigmoidal (four-parameter logistic) dose-response model using GraphPad Prism software. […] Percent blocking of FGFR3 antibody at a given concentration was calculated based on the formula shown below.
The ability of anti-FGFR3 antibodies to block human FGFR3b binding to hFGF acidic protein or hFGFR3c binding to hFGF acidic or hFGF basic proteins was evaluated using a sandwich ELISA-based blocking assay.

Binder | % Blocking at 200 nM mAb [%] | IC50 [nM]
B1 | 68 | 15
B2 | 91 | 2.5
